For 5 variants, response results are on record in PMC12339742.

B1: PduP encapsulation peptide with its native linker fused to the N-terminus of mNeonGreen [Salmonella enterica] / itself (parent)
chain: MNTSELETLIRTILSEQLTTPAQTPVQPQGKGIFQS

Variants of B1 are the subject of test [1]. Description: turbidity measurement (self-assembly / condensation), NaCl titration. The conditions noted are these: with itself; value read at the lowest NaCl point (est. ~12-15 mM NaCl); parent: 0.45; read off a plot.
The variants in test [2] derive from B1. Description: turbidity measurement (self-assembly / condensation), protein concentration titration. Particulars: with itself; value read at the third-highest protein concentration point (est. ~45 µM); parent: 0.45; read off a plot.

Take MNTSELETLSRTILSEQLTTPAQTPVQPQGKGIFQS: the response with itself [1] is 0.17.

On to MNTSELETLIATILSEQLTTPAQTPVQPQGKGIFQS, for which the response with itself [1] came out at 0.26; with itself [2], 0.21.

On to MNTSELETLIKTILSEQLTTPAQTPVQPQGKGIFQS, for which the response with itself [1] stood at 0.46; with itself [2] it was 0.39.

Turning to MNTSELRTLIETILSEQLTTPAQTPVQPQGKGIFQS, the figures for the response with itself [1] and in the test with itself [2] were 0.51 and 0.5, respectively.

With MNTSELDTLIRTILSEQLTTPAQTPVQPQGKGIFQS, the response is 0.37 with itself [1] and 0.21 with itself [2].
